Laboratory results as given in PMC3115021, “Dynamics of Cdk1 Substrate Specificity during the Cell Cycle” (Molecular Cell, 2011).

Key:
Test in all cases: Quantitative phosphorylation assay of T33-Sic1ΔC constructs and recombinant substrates
Type in all cases: biochemical
Details in all cases: Table S2; purified protein substrate; relative values, not divided by [S]
[1] = molecular target: T1, Clb2-Cdk1 (Saccharomyces cerevisiae, UniProt P00546+P24869)
T1 construct: We purified the four cyclin-Cdk1 complexes from yeast; made in house; host or cells: S. cerevisiae strain DOM0077 (gal-CLB2-TAP, sic1 deleted); Cks1 from bacteria
T1 sequence (P00546 2-298 limits assumed): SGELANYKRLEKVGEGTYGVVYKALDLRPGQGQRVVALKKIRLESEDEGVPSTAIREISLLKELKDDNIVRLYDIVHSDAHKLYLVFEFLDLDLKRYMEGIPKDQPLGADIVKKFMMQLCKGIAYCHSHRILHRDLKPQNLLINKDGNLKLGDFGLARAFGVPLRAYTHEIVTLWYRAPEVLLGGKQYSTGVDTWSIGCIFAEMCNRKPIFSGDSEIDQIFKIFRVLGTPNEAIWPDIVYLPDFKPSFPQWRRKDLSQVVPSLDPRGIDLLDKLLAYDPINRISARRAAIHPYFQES
T1 sequence (P24869 2-491 partner limits assumed): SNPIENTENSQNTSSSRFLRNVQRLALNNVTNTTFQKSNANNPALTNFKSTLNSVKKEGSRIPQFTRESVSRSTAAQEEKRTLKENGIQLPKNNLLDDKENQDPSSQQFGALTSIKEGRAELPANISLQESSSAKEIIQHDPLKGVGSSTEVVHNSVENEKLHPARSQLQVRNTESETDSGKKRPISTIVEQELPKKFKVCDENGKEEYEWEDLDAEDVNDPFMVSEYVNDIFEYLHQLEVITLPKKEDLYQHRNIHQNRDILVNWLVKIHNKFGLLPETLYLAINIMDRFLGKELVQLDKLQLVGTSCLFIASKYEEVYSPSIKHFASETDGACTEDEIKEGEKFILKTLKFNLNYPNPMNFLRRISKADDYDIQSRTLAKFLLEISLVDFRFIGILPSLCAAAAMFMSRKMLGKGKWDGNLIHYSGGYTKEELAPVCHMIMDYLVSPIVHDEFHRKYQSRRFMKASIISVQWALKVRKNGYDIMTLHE
T1 sequence (P20486 whole entry partner): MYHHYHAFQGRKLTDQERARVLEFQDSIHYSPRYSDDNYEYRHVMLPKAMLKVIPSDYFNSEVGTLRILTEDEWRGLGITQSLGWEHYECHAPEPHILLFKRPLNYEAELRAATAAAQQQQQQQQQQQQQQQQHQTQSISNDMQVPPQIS

[2] = molecular target: T2, Clb3-Cdk1 (Saccharomyces cerevisiae, UniProt P00546+P24870)
T2 construct: We purified the four cyclin-Cdk1 complexes from yeast; made in house; host or cells: S. cerevisiae strain DOM0957 (gal-CLB3-TAP, sic1 deleted); Cks1 from bacteria
T2 sequence (P00546 2-298 limits assumed): as the sequence (P00546 2-298 limits assumed) above
T2 sequence (P24870 whole entry partner): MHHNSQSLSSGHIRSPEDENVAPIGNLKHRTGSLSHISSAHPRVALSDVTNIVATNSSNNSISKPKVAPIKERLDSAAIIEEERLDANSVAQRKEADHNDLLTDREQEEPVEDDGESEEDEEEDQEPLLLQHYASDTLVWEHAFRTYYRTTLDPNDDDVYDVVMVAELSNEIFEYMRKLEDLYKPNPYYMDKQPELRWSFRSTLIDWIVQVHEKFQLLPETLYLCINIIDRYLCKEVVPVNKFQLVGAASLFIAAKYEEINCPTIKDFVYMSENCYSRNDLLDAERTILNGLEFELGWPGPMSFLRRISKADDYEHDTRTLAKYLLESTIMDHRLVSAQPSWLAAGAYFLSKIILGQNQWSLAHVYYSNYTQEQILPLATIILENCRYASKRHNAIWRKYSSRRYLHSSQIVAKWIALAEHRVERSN
T2 sequence (P20486 whole entry partner): as the sequence (P20486 whole entry partner) above

[3] = molecular target: T3, Clb5-Cdk1 (Saccharomyces cerevisiae, UniProt P00546+P30283)
T3 construct: We purified the four cyclin-Cdk1 complexes from yeast; made in house; host or cells: S. cerevisiae strain DOM0076 (gal-CLB5-TAP, sic1 deleted); Cks1 from bacteria
T3 sequence (P00546 2-298 limits assumed): as the sequence (P00546 2-298 limits assumed) above
T3 sequence (P30283 whole entry partner): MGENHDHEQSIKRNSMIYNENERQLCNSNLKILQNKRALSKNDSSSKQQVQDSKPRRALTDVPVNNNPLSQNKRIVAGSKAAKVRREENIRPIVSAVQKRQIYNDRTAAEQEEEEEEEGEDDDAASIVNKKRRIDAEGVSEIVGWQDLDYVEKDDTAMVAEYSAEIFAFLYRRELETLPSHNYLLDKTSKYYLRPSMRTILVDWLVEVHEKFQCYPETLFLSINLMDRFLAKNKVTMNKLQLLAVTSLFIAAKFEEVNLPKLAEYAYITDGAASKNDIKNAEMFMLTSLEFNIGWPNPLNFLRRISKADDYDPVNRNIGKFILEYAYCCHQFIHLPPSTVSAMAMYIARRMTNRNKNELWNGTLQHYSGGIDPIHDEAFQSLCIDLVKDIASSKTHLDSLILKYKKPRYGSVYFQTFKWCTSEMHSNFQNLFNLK
T3 sequence (P20486 whole entry partner): as the sequence (P20486 whole entry partner) above

[4] = molecular target: T4, Cln2-Cdk1 (Saccharomyces cerevisiae, UniProt P00546+P20438)
T4 construct: We purified the four cyclin-Cdk1 complexes from yeast; made in house; host or cells: S. cerevisiae strain DMY305 (galactose-induced); Cks1 from bacteria
T4 sequence (P00546 2-298 limits assumed): as the sequence (P00546 2-298 limits assumed) above
T4 sequence (P20438 whole entry partner): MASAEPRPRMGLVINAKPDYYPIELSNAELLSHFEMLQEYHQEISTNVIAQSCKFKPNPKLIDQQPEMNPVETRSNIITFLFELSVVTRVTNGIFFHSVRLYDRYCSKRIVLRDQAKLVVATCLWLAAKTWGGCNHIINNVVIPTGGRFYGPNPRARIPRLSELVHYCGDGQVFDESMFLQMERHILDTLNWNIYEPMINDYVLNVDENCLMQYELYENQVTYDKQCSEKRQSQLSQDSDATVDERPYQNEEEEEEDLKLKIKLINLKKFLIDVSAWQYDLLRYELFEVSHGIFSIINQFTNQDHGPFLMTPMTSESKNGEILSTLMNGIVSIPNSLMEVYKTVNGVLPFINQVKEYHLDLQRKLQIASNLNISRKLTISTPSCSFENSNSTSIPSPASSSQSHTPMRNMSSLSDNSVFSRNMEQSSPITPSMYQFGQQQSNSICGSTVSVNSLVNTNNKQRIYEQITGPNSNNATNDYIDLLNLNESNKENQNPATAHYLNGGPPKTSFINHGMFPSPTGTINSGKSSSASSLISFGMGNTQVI
T4 sequence (P20486 whole entry partner): as the sequence (P20486 whole entry partner) above

[5] = molecular target: T5, Clb2hpm-Cdk1 (Saccharomyces cerevisiae, UniProt P00546)
T5 construct: made in house; host or cells: S. cerevisiae strain DOM0964 (gal-CLB2hpm-TAP, sic1 deleted); Cks1 from bacteria
T5 sequence (P00546 2-298 limits assumed): as the sequence (P00546 2-298 limits assumed) above
How it was run: (§1)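 Yeast cyclin-Cdk1 complexes (1–10 nM, TAP-purified) phosphorylated 6His-T33-Sic1ΔC (other S/T-P sites mutated to Ala-Ala) or recombinant substrates at 0.5–2 μM, below KM, with 32P-γ-ATP. Initial velocities (≤10% turnover) from two or more time points, SDS-PAGE stopped; relative kcat/KM from v0 ratios.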

[6] = molecular target: T6, Clb3hpm-Cdk1 (Saccharomyces cerevisiae, UniProt P00546+P24870)
T6 construct: made in house; host or cells: S. cerevisiae strain MK0168 (gal-CLB3hpm-TAP, sic1 deleted); Cks1 from bacteria
How it was run: as §1

[7] = molecular target: T7, Clb5hpm-Cdk1 (Saccharomyces cerevisiae, UniProt P00546)
T7 construct: made in house; host or cells: S. cerevisiae strain DOM0963 (gal-CLB5hpm-TAP, sic1 deleted); Cks1 from bacteria
T7 sequence (P00546 2-298 limits assumed): as above
How it was run: as §1

Molecule | kcat/KM, Clb2 [1] [relative units] | kcat/KM, Clb3 [2] [relative units] | kcat/KM, Clb5 [3] [relative units] | kcat/KM, Cln2 [4] [relative units] | kcat/KM, Clb2hpm [5] [relative units] | kcat/KM, Clb3hpm [6] [relative units] | kcat/KM, Clb5hpm [7] [relative units]
YHP1: purified yeast protein tested as Cdk1 substrate (protein, UniProt Q04116 1-353, looked up) Homeobox protein YHP1: MESRNTVLPSLPNIITGTSNSPFQLHTLPNTNFPSDDQGDIRLPPLAASAHIVRPVVNIYKSPCDEERPKRKSPQAVDFLSQRVTTSMTPLSKPKKLSSHSPFTPTVRVCSKEQPPQSMHSYKKVNILTPLSAAKAVLTPTTRKEKKRSFAFITHSQETFPKKEPKIDNARLARRKRRRTSSYELGILQTAFDECPTPNKAKRIELSEQCNMSEKSVQIWFQNKRQAAKKHKNSGNTSHCKVHSNDSMSMISYSDAALEITSTPTSTKEAITAELLKTSPANTSSIFEDHHITPCKPGGQLKFHRKSVLVKRTLSNTGHSEIIKSPKGKENRLKFNAYERKPLGEVDLNSFKN | 0.385 | 0.066 | 0.020 | 0.524 | 0.046 | 0.009 | 0.002
WHI5: repressor of the G1-specific SBF transcription factor, tested as Cdk1 substrate (protein, UniProt Q12416 1-295, looked up) G1-specific transcriptional …: MSLRTPKRSRTSDEQEQEQEQEQVQNPDTHVNNEHQQRPGPTTLLSTPVRLKNGFGTPSPPSPPGITKSITKSRRRPSTTSLQGIFMSPVNKRRVGITAHGRVYDHNDDGHESESEDDENEEENENQKKYDGHVSMPLLPPTTPKSRRSEVFLSPSPRLRSPPTAARRSTGERPIREISHTLRTRLNYALVKLQNGWTDKTLPELETELAPAVQTPPRRYHNRFPDSADAGTSAHTAFLQALGGHPPREEATAVETLMLLSSPTKKQQHRPVPATSAGEPTDETEPESDTEVETS | 0.046 | 0.033 | 0.016 | 0.283 | 0.027 | 0.006 | 0.001
SWI6: cell cycle-related transcription factor, tested as Cdk1 substrate (protein, UniProt P09959 1-803, looked up) Regulatory protein SWI6: MALEEVVRYLGPHNEIPLTLTRDSETGHFLLKHFLPILQQYHDTGNINETNPDSFPTDEERNKLLAHYGIAVNTDDRGELWIELEKCLQLLNMLNLFGLFQDAFEFEEPETDQDEEDPSHSKLPENKTKSENSKDNISSKRINNLQDMSLDSDAHRELGSPLKKLKIDTSVIDAESDSTPNTARGKPNDDINKGPSGDNENNGTDDNDRTAGPIITFTHDLTSDFLSSPLKIMKALPSPVVNDNEQKMKLEAFLQRLLFPEIQEMPTSLNNDSSNRNSEGGSSNQQQQHVSFDSLLQEVNDAFPNTQLNLNIPVDEHGNTPLHWLTSIANLELVKHLVKHGSNRLYGDNMGESCLVKAVKSVNNYDSGTFEALLDYLYPCLILEDSMNRTILHHIIITSGMTGCSAAAKYYLDILMGWIVKKQNRPIQSGTNEKESKPNDKNGERKDSILENLDLKWIIANMLNAQDSNGDTCLNIAARLGNISIVDALLDYGADPFIANKSGLRPVDFGAGTSKLQNTNGGDENSKMVSKGDYDGQKNGKAKKIRSQLLKNPPETTSLINDVQNLLNSISKDYENETVQYNEKLEKLHKELNEQREELANSREQLANVKQLKDEYSLMQEQLTNLKAGIEEEEESFREESKKLGIIADESSGIDWDSSEYDADEPFKVEFLSDFLEDKLQKNYEGDISKLLEAESKEQIMEQIRNQLPAEKIQSMLPPTVLLKARINAYKRNDKHLTNVLDTISTKQSELENKFRRVLSLCLKIDENKVDNMLDGLLQAISSEDPQDIDTDEMQDFLKKHAS | 0.412 | 0.105 | 0.118 | 0.004 | 0.481 | 0.075 | 0.058
XBP1: purified yeast protein tested as Cdk1 substrate (protein, UniProt P40489 1-647, looked up) Transcriptional repressor XBP1: MKYPAFSINSDTVHLTDNPLDDYQRLYLVSVLDRDSPPASFSAGLNIRKVNYKSSIAAQFTHPNFIISARDAGNGEEAAAQNVLNCFEYQFPNLQTIQSLVHEQTLLSQLASSATPHSALHLHDKNILMGKIILPSRSNKTPVSASPTKQEKKALSTASRENATSSLTKNQQFKLTKMDHNLINDKLINPNNCVIWSHDSGYVFMTGIWRLYQDVMKGLINLPRGDSVSTSQQQFFCKAEFEKILSFCFYNHSSFTSEESSSVLLSSSTSSPPKRRTSTGSTFLDANASSSSTSSTQANNYIDFHWNNIKPELRDLICQSYKDFLINELGPDQIDLPNLNPANFTKRIRGGYIKIQGTWLPMEISRLLCLRFCFPIRYFLVPIFGPDFPKDCESWYLAHQNVTFASSTTGAGAATAATAAANTSTNFTSTAVARPRQKPRPRPRQRSTSMSHSKAQKLVIEDALPSFDSFVENLGLSSNDKNFIKKNSKRQKSSTYTSQTSSPIGPRDPTVQILSNLASFYNTHGHRYSYPGNIYIPQQRYSLPPPNQLSSPQRQLNYTYDHIHPVPSQYQSPRHYNVPSSPIAPAPPTFPQPYGDDHYHFLKYASEVYKQQNQRPAHNTNTNMDTSFSPRANNSLNNFKFKTNSKQ | 0.103 | 0.065 | 0.020 | 0.200 | 0.084 | 0.013 | 0.007
TOS4: putative transcription factor, tested as Cdk1 substrate (protein, UniProt Q06266 1-489, looked up) Protein TOS4: MSSQFPSSPYRTVDPYSPPNYKQQPNCPSSNYEKAGKTASESIGNFGKGDYPTPFPSSSIGRVSSPVRSNKVDAIPSSPAFPGQLAETSPKFSSKLSSPSRHTRVINAELDPSKISTITVGRNSSQCDVALCKNKFISRVHASITYLPQTNEVKIHCFSMNGLIVTYRKQFDCYQLKDTMNNNNRAYRLVPRFSNEKCVKEIQDEGGFINFTLEEGDTVYMTYYKGIMLDFRQVLLRISLKEKNSSSEPLRFEKKAEFESESETKHMGSIRKHPLIFTDTSMDRPKKILKDSNKISIGSDSGVAERMLNHFLNSKSSPLSSVSSVDHEEQTLRQDSLSSDKNPMTMKKPKLNKRVLPSKPKKSVKENLDELSRRNIDVMHLQHILTNHLAFANVQQTPLFQLQQVNSQISELSRDELRSILSDAKCVGVIYRHGKDAAGKPLDEEYFYDLENDDDYERRNLVSSLKGGRTGLRSCRRTHKQYFWKKPAK | 2.373 | 8.484 | 0.502 | 0.708 | 2.136 | 2.397 | 0.593
